Test results published in patent US20260167721A1 (ABLEXIS, published 2026).

B1: CD3 × CD33-BspAb39 (bispecific antibody)
chain 1: not shown
chain 2: EVQLVQSGAEVKKPGSSVKVSCKASGYTITDSNIHWVRQAPGQSLEWIGYIYPYNGGTDYNQKFKNRATLTVDNPTNTAYMELSSLRSEDTAFYYCVNGNPWLAYWGQGTLVTVSSASTKGPSVFPLAPSSKSTSGGTAALGCLVKDYFPEPVTVSWNSGALTSGVHTFPAVLQSSGLYSLSSVVTVPSSSLGTQTYICNVNHKPSNTKVDKRVEPKSCDKTHTCPPCPAPEFEGGPSVFLFPPKPKDTLMISRTPEVTCVVVDVSHEDPEVKFNWYVDGVEVHNAKTKPREEQYNSTYRVVSVLTVLHQDWLNGKEYKCKVSNKALPASIEKTISKAKGQPREPQVCTLPPSREEMTKNQVSLSCAVKGFYPSDIAVEWESNGQPENNYKTTPPVLDSDGSFFLVSKLTVDKSRWQQGNVFSCSVMHEALHNRFTQKSLSLSPGK
chain 3: DIQLTQSPSTLSASVGDRVTITCRASESLDNYGIRFLTWFQQKPGKAPKLLMYAASNQGSGVPSRFSGSGSGTEFTLTISSLQPDDFATYYCQQTKEVPWSFGQGTKVEVKRTVAAPSVFIFPPSDEQLKSGTASVVCLLNNFYPREAKVQWKVDNALQSGNSQESVTEQDSKDSTYSLSSTLTLSKADYEKHKVYACEVTHQGLSSPVTKSFNRGEC
B2: CD3 × CD33-BspAb48 (bispecific antibody)
chain 1: QVTLKESGPGILQPSQTLSLTCSFSGFSLSTFGMGVGWIRQPSGKCLEWLAHIWWDDDKYYNPALKSRLTISKDTSKNQVFLKIANVDTADTATYYCARLGYYPYWFFDVWGTGTTVTVSSGGGGSGGGGSGGGGSGGGGSNFMLTQPHSVSESPGKTVTIACTRSSGSIASNYVQWYQQRPGSSPTTVIYEDNQRPSGVPDRFSGSIDSSSNSASLTISGLKTEDEADYYCQSYDSSNQVFGCGTKLTVLDKTHTCPPCPAPEFEGGPSVFLFPPKPKDTLMISRTPEVTCVVVDVSHEDPEVKFNWYVDGVEVHNAKTKPREEQYNSTYRVVSVLTVLHQDWLNGKEYKCKVSNKALPASIEKTISKAKGQPREPQVYTLPPCREEMTKNQVSLWCLVKGFYPSDIAVEWESNGQPENNYKTTPPVLDSDGSFFLYSKLTVDKSRWQQGNVFSCSVMHEALHNHYTQKSLSLSPGK
chain 2: B1 chain 2
chain 3: B1 chain 3
B3: CD3 × CD33-BspAb42 (bispecific antibody)
chain 1: EVQLVESGGGLVKPGGSLRLSCAASGFTLSSYSMNWVRQAPGKCLEWVSSISRSGSYIYYADSVKGRFTISRDNAKNSLYLQMNSLRAEDTAVYYCAREKWELLYFDYWGQGTLVTVSSGGGGSGGGGSGGGGSGGGGSNFMLTQPHSVSESPGKTVTISCTRSSGSIASNYVQWYQQRPGSSPTTVIYEDNQRPSGVPDRFSGSIDSSSNSASLTISGLKTEDEADYYCQSYDSSNRVFGCGTKLTVLDKTHTCPPCPAPEFEGGPSVFLFPPKPKDTLMISRTPEVTCVVVDVSHEDPEVKFNWYVDGVEVHNAKTKPREEQYNSTYRVVSVLTVLHQDWLNGKEYKCKVSNKALPASIEKTISKAKGQPREPQVYTLPPCREEMTKNQVSLWCLVKGFYPSDIAVEWESNGQPENNYKTTPPVLDSDGSFFLYSKLTVDKSRWQQGNVFSCSVMHEALHNHYTQKSLSLSPGK
chain 2: B1 chain 2
chain 3: B1 chain 3
B4: CD3 × CD33-BspAb61 (bispecific antibody)
scFv-Fc: NFMLTQPHSVSESPGKTVTISCTRSSGSIASNYVQWYQQRPGSSPTTVIYEDNQRPSGVPDRFSGSIDSSSNSASLTISGLKTEDEADYYCQSFDNSNRVFGCGTKLTVLGGGGSGGGGSGGGGSGGGGSEVQLVESGGGLVKPGGSLRLSCAASGFTFSRYSMNWVRQAPGKCLKWVSSISSSGSYKYYADSVKGRFTISRDNAKNSLYLQMNSLRAEDTAVYYCAREPPTLGMDYWGQGTLVTVSSGGGGSDKTHTCPPCPAPEFEGGPSVFLFPPKPKDTLMISRTPEVTCVVVDVSHEDPEVKFNWYVDGVEVHNAKTKPREEQYNSTYRVVSVLTVLHQDWLNGKEYKCKVSNKALPASIEKTISKAKGQPREPQVYTLPPCREEMTKNQVSLWCLVKGFYPSDIAVEWESNGQPENNYKTTPPVLDSDGSFFLYSKLTVDKSRWQQGNVFSCSVMHEALHNHYTQKSLSLSPGK
heavy: B1 chain 2
light: B1 chain 3
B5: CD3 × CD33-BspAb66 (bispecific antibody, human IgG1, kappa)
scFv: EVQLVESGGGLVQPGRSLRLSCAASGFTFDDYAMHWVRQAPGKGLEWVSGISWNSGSIGYADSVKGRFTISRDNAKNSLYLQMNSLRAEDTALYYCAKDSRGYGDYRLGGAYWGQGTLVTVSSGGGGSGGGGSGGGGSGGGGSEIVMTQSPATLSVSPGERATLSCRASQSVSSNLAWYQQKPGQAPRLLIYGASTRATGIPARFSGSGSGTEFTLTISSLQSEDFAVYYCQQYNNWPWTFGQGTKVEIKTSGPGGPDKTHTCPPCPAPEFEGGPSVFLFPPKPKDTLMISRTPEVTCVVVDVSHEDPEVKFNWYVDGVEVHNAKTKPREEQYNSTYRVVSVLTVLHQDWLNGKEYKCKVSNKALPASIEKTISKAKGQPREPQVYTLPPCREEMTKNQVSLWCLVKGFYPSDIAVEWESNGQPENNYKTTPPVLDSDGSFFLYSKLTVDKSRWQQGNVFSCSVMHEALHNHYTQKSLSLSPGK
heavy: B1 chain 2
light: B1 chain 3
notes: also called CD3δε-specific control antibody scFv-Fc knob/TM x gemtuzumab
B6: CD3 × CD33-BspAb51 (bispecific antibody)
chain 1: not shown
chain 2: B1 chain 2
chain 3: B1 chain 3
B7: CD3 × CD33-BspAb45 (bispecific antibody)
chain 1: EVQLVESGGGLVQPGGSLRLSCAASGFTFSRYSMNWVRQAPGKCLEWVSYISSSSSSIYYADSVKGRFTISRDNAKNSLYLQMNSLRDEDTAVYYCARDRRATLDYWGQGTLVTVSSGGGGSGGGGSGGGGSGGGGSNFMLTQPHSVSESPGKTVTISCTRSSGSIASNYVQWYQQRPGSSPTTVIYEDNQRPSGVPDRFSGSIDSSSNSASLTISGLKTEDEADYYCQSYDSSNHVFGCGTKLTVLDKTHTCPPCPAPEFEGGPSVFLFPPKPKDTLMISRTPEVTCVVVDVSHEDPEVKFNWYVDGVEVHNAKTKPREEQYNSTYRVVSVLTVLHQDWLNGKEYKCKVSNKALPASIEKTISKAKGQPREPQVYTLPPCREEMTKNQVSLWCLVKGFYPSDIAVEWESNGQPENNYKTTPPVLDSDGSFFLYSKLTVDKSRWQQGNVFSCSVMHEALHNHYTQKSLSLSPGK
chain 2: B1 chain 2
chain 3: B1 chain 3
B8: CD3 × CD33-BspAb50 (bispecific antibody)
scFv-Fc: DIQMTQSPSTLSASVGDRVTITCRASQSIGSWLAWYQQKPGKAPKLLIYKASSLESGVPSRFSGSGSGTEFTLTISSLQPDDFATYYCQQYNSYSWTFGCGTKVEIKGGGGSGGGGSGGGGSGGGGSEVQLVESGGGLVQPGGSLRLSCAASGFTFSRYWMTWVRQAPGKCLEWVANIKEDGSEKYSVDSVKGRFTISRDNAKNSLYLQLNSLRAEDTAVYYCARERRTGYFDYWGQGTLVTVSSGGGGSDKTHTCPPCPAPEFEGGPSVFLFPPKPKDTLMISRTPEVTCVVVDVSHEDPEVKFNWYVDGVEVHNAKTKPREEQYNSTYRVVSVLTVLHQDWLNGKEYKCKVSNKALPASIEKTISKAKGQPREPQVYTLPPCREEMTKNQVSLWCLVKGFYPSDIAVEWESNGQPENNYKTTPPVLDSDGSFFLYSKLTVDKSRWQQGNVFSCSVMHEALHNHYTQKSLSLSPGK
heavy: B1 chain 2
light: B1 chain 3
B9: CD3 × CD33-BspAb37 (bispecific antibody)
chain 1: not shown
chain 2: B1 chain 2
chain 3: B1 chain 3
B10: CD3 × CD33-BspAb62 (bispecific antibody)
scFv-Fc: NFMLTQPHSVSESPGKTVTISCTRSSGSIASNYVQWYQQRPGSSPTTVIYEDNQRPSGVPDRFSGSIDSSSNSASLTISGLKTEDEADYYCQSYDSSNHVFGCGTKLTVLGGGGSGGGGSGGGGSGGGGSEVQLVESGGGLVQPGGSLRLSCAASGFTFSRYSMNWVRQAPGKCLEWVSYISSSSSSIYYADSVKGRFTISRDNAKNSLYLQMNSLRDEDTAVYYCARDRRATLDYWGQGTLVTVSSGGGGSDKTHTCPPCPAPEFEGGPSVFLFPPKPKDTLMISRTPEVTCVVVDVSHEDPEVKFNWYVDGVEVHNAKTKPREEQYNSTYRVVSVLTVLHQDWLNGKEYKCKVSNKALPASIEKTISKAKGQPREPQVYTLPPCREEMTKNQVSLWCLVKGFYPSDIAVEWESNGQPENNYKTTPPVLDSDGSFFLYSKLTVDKSRWQQGNVFSCSVMHEALHNHYTQKSLSLSPGK
heavy: B1 chain 2
light: B1 chain 3
B11: CD3 × CD33-BspAb44 (bispecific antibody)
chain 1: EVQLVESGGGLVKPGGSLRLSCAASGFTFSRYSMNWVRQAPGKCLKWVSSISSSGSYKYYADSVKGRFTISRDNAKNSLYLQMNSLRAEDTAVYYCAREPPTLGMDYWGQGTLVTVSSGGGGSGGGGSGGGGSGGGGSNFMLTQPHSVSESPGKTVTISCTRSSGSIASNYVQWYQQRPGSSPTTVIYEDNQRPSGVPDRFSGSIDSSSNSASLTISGLKTEDEADYYCQSFDNSNRVFGCGTKLTVLDKTHTCPPCPAPEFEGGPSVFLFPPKPKDTLMISRTPEVTCVVVDVSHEDPEVKFNWYVDGVEVHNAKTKPREEQYNSTYRVVSVLTVLHQDWLNGKEYKCKVSNKALPASIEKTISKAKGQPREPQVYTLPPCREEMTKNQVSLWCLVKGFYPSDIAVEWESNGQPENNYKTTPPVLDSDGSFFLYSKLTVDKSRWQQGNVFSCSVMHEALHNHYTQKSLSLSPGK
chain 2: B1 chain 2
chain 3: B1 chain 3

These binders were tested against T1, CD3 on Jurkat wild-type cells (UniProt P07766 23-207; P04234 22-171; P09693 23-182) (assay: flow cytometry on Jurkat WT cells, antibody at 10 ug/ml).
T1 construct: whole, on cells; also called Jurkat WT
T1 sequence (P07766 23-207, chain 1 of 3): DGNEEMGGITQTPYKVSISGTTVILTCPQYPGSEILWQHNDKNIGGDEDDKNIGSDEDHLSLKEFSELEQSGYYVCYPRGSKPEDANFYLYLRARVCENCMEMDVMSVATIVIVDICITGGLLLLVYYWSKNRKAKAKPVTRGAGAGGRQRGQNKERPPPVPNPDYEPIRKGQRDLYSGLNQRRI
T1 sequence (P04234 22-171, chain 2 of 3): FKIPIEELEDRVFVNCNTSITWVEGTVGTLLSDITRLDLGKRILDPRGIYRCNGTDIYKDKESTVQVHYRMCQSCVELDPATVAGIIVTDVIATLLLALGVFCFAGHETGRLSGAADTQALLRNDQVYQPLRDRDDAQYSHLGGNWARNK
T1 sequence (P09693 23-182, chain 3 of 3): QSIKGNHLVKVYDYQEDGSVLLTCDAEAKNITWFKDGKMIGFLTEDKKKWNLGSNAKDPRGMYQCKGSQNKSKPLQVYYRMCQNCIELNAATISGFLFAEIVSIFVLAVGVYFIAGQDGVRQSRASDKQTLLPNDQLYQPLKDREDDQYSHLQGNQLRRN

| Binder | flow cytometry signal |
| --- | --- |
| B1 | 2740 |
| B2 | 10800 |
| B3 | 26400 |
| B4 | 84800 |
| B5 | 23100 |
| B6 | 24300 |
| B7 | 38300 |
| B8 | 33900 |
| B9 | 32800 |
| B10 | 59000 |
| B11 | 84800 |

What follows are binders tested against T1, CD3 on Jurkat wild-type cells (assay: flow cytometry on Jurkat WT cells, antibody at 1 ug/ml).

| Binder | flow cytometry signal |
| --- | --- |
| B1 | 2160 |
| B2 | 4140 |
| B3 | 12200 |
| B4 | 95600 |
| B5 | 6660 |
| B6 | 12000 |
| B7 | 19200 |
| B8 | 9700 |
| B9 | 10900 |
| B10 | 62500 |
| B11 | 113000 |

Each binder was assayed against T2, CD33 on KILR-HL60 cells (UniProt P20138 18-364, limits assumed) (assay: flow cytometry on KILR-HL60 (CD33 expressing) cells, antibody at 1 ug/ml).
T2 construct: whole, on cells; Target of the gemtuzumab arm; also called CD33 expressing cells
T2 sequence (P20138 18-364 limits assumed): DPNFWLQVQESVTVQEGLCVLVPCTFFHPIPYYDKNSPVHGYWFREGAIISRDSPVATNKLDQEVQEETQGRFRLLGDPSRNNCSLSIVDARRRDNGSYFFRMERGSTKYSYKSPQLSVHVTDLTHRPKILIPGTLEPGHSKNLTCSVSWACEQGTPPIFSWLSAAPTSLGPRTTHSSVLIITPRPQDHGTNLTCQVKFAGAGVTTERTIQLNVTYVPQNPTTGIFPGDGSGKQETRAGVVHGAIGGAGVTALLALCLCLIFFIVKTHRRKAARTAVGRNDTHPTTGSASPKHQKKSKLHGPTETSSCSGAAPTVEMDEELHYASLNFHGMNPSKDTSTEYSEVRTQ

| Binder | flow cytometry signal |
| --- | --- |
| B1 | 541000 |
| B2 | 566000 |
| B3 | 453000 |
| B4 | 621000 |
| B5 | 569000 |
| B6 | 509000 |
| B7 | 640000 |
| B8 | 475000 |
| B9 | 486000 |
| B10 | 295000 |
| B11 | 640000 |

Each binder was assayed against T2, CD33 on KILR-HL60 cells (assay: flow cytometry on KILR-HL60 (CD33 expressing) cells, antibody at 10 ug/ml).

| Binder | flow cytometry signal |
| --- | --- |
| B1 | 572000 |
| B2 | 483000 |
| B3 | 485000 |
| B4 | 538000 |
| B5 | 499000 |
| B6 | 691000 |
| B7 | 741000 |
| B8 | 465000 |
| B9 | 758000 |
| B10 | 595000 |
| B11 | 475000 |
